Results published in IntAct's records for PubMed 16775625.

B1: Cyclin-dependent kinase 14 (Homo sapiens), O94921 (parent)
chain: MCDLIEPQPAEKIGKMKKLRRTLSESFSRIALKKDDTTFDEICVTKMSTRNCQGMDSVIKPLDTIPEDKKVRVQRTQSTFDPFEKPANQVKRVHSENNACINFKTSSTGKESPKVRRHSSPSSPTSPKFGKADSYEKLEKLGEGSYATVYKGKSKVNGKLVALKVIRLQEEEGTPFTAIREASLLKGLKHANIVLLHDIIHTKETLTLVFEYVHTDLCQYMDKHPGGLHPDNVKLFLFQLLRGLSYIHQRYILHRDLKPQNLLISDTGELKLADFGLARAKSVPSHTYSNEVVTLWYRPPDVLLGSTEYSTCLDMWGVGCIFVEMIQGVAAFPGMKDIQDQLERIFLVLGTPNEDTWPGVHSLPHFKPERFTLYSSKNLRQAWNKLSYVNHAEDLASKLLQCSPKNRLSAQAALSHEYFSDLPPRLWELTDMSSIFTVPNVRLQPEAGESMRAFGKNNSYGKSLSNSKH
partner: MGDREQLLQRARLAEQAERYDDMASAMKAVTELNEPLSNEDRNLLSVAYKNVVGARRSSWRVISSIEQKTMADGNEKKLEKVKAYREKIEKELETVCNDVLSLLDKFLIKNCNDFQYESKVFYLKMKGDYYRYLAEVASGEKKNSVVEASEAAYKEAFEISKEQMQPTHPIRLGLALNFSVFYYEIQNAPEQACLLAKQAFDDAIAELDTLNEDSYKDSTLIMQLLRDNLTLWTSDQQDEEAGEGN
B2: Cyclin-dependent kinase 14 (Homo sapiens), O94921 (parent)
chain: B1 chain
partner: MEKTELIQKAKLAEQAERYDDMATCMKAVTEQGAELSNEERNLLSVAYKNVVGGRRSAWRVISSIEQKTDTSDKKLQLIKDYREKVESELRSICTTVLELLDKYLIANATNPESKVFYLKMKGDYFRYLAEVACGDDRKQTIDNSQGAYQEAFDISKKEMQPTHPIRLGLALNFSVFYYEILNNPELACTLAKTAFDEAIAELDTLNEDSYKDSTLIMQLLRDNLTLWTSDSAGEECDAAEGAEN
B3: Cyclin-dependent kinase 14 (Homo sapiens), O94921 (parent)
chain: B1 chain

Variants of: B1
Details: with 1433f_human YWHAH

Variant | effect of a mutation on the interaction
S119A | decreasing interaction

Variants of: B2
Details: with 1433t_human YWHAQ

Variant | effect of a mutation on the interaction
S119A | decreasing interaction

Variants of: B3
Details: with 1433b_human YWHAB

Variant | effect of a mutation on the interaction
S119A | decreasing interaction

Variants of: B3
Details: with 1433e_human YWHAE

Variant | effect of a mutation on the interaction
S119A | decreasing interaction
